According to publication PMC5456053:

Experiments:
[1] = target: SecA C34 (C-terminal 34 kD protein; SecA 610-901) (E. coli) (UniProt P10408)
[2] = target: SecYEG-SecDF•YajC (E. coli) (UniProt P0AGA2)

| Binder | translocation of pOmpA, liposomes with SecYEG-SecDF•YajC, N-fragment reconstituted with C34 (Fig 6B) (% of the activity of intact SecA) [1] | % pOmpA Translocation, +YEG: in vitro translocation of pOmpA into liposomes with SecYEG-SecDF•YajC (% pOmpA Translocation) [2] | Channel Activity, μA, +YEG: ion current in Xenopus oocytes injected with the fragment, liposomes, SecYEG-SecDF•YajC, pOmpA, ATP-Mg [2] |
| --- | --- | --- | --- |
| SecA N668 (SecA 1-668) (domain or fragment) MLIKLLTKVFGSRNDRTLRRMRKVVNIINAMEPEMEKLSDEELKGKTAEFRARLEKGEVLENLIPEAFAVVREASKRVFGMRHFDVQLLGGMVLNERCIAEMRTGEGKTLTATLPAYLNALTGKGVHVVTVNDYLAQRDAENNRPLFEFLGLTVGINLPGMPAPAKREAYAADITYGTNNEYGFDYLRDNMAFSPEERVQRKLHYALVDEVDSILIDEARTPLIISGPAEDSSEMYKRVNKIIPHLIRQEKEDSETFQGEGHFSVDEKSRQVNLTERGLVLIEELLVKEGIMDEGESLYSPANIMLMHHVTAALRAHALFTRDVDYIVKDGEVIIVDEHTGRTMQGRRWSDGLHQAVEAKEGVQIQNENQTLASITFQNYFRLYEKLAGMTGTADTEAFEFSSIYKLDTVVVPTNRPMIRKDLPDLVYMTEAEKIQAIIEDIKERTAKGQPVLVGTISIEKSELVSNELTKAGIKHNVLNAKFHANEAAIVAQAGYPAAVTIATNMAGRGTDIVLGGSWQAEVAALENPTAEQIEKIKADWQVRHDAVLEAGGLHIIGTERHESRRIDNQLRGRSGRQGDAGSSRFYLSMEDALMRIFASDRVSGMMRKLGMKPGEAIEHPWVTKAIANAQRKVESRNFDIRKQLLEYDDVANDQRRAIYSQRNELLD | 50 | 0 | 5.8 μA |
| SecA N640 (SecA 1-640) (domain or fragment) MLIKLLTKVFGSRNDRTLRRMRKVVNIINAMEPEMEKLSDEELKGKTAEFRARLEKGEVLENLIPEAFAVVREASKRVFGMRHFDVQLLGGMVLNERCIAEMRTGEGKTLTATLPAYLNALTGKGVHVVTVNDYLAQRDAENNRPLFEFLGLTVGINLPGMPAPAKREAYAADITYGTNNEYGFDYLRDNMAFSPEERVQRKLHYALVDEVDSILIDEARTPLIISGPAEDSSEMYKRVNKIIPHLIRQEKEDSETFQGEGHFSVDEKSRQVNLTERGLVLIEELLVKEGIMDEGESLYSPANIMLMHHVTAALRAHALFTRDVDYIVKDGEVIIVDEHTGRTMQGRRWSDGLHQAVEAKEGVQIQNENQTLASITFQNYFRLYEKLAGMTGTADTEAFEFSSIYKLDTVVVPTNRPMIRKDLPDLVYMTEAEKIQAIIEDIKERTAKGQPVLVGTISIEKSELVSNELTKAGIKHNVLNAKFHANEAAIVAQAGYPAAVTIATNMAGRGTDIVLGGSWQAEVAALENPTAEQIEKIKADWQVRHDAVLEAGGLHIIGTERHESRRIDNQLRGRSGRQGDAGSSRFYLSMEDALMRIFASDRVSGMMRKLGMKPGEAIEHPWVTKAIANAQRKVESRNFD | 50 | – | 2.2 μA |
